{
  "source": "the nanobody polyreactivity screen of Harvey et al. (2022)",
  "data": [
    {"assay": "yeast display, Sf9 membrane polyspecificity reagent, FACS + sequencing; frameworks hold sequencing errors", "method_in_brief": "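Nanobodies came from a synthetic yeast display library in Saccharomyces cerevisiae BJ5465, induced with galactose for 36–48 hours and stained for 1 hour at 4 °C with 10% biotinylated, detergent-solubilized Sf9 membrane reagent. Cells were enriched on streptavidin microbeads and then FACS-sorted, with low and high (top ~1%) gates set on anti-HA fluorescence for expression and streptavidin fluorescence for reagent binding. Each polyreactivity label reflects the gate a clone came from. Genes were amplified by colony PCR, sequenced by MiSeq 2 × 250 and filtered by CDR length.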", "values": [
      {"sequence": "QVQLVESGGGLVQAGGSLRLSCAASGGTFSFYTMGWYRQAPGKERELVAAISRSGGRTYYADSVKGRFTISRDHAQNTVYLQMNSLKPEDTAVYYCAAERFSNIYTTMGYWGQGTQVTVSS", "polyreactivity (PSR sort gate)": "high polyreactivity"},
      {"sequence": "QVQLVESGGGLVQAGGSLRLSCAASGGTFSSNAMGWYRQAPGKERELVAAISGSGDRTYYADSVKGRFTISRDNAKNTVYLQMNSLKPEDTAVYYCAAEHETGAYYYWGQGTQVTVSS", "polyreactivity (PSR sort gate)": "high polyreactivity"},
      {"sequence": "QVQLVESGGGLVQAGGSLRLSCAASGGTFSTYAMGWYRQAPGKERELVAAISSTGGSTYYADSVKGRFTISRDNAKNTVYLQMNSLKPEDTAVYYCAAYYSRGWLLYWDEMYYWGQGTQVTVSS", "polyreactivity (PSR sort gate)": "high polyreactivity"},
      {"sequence": "QVQLVESGGGLVQAGGSLRLSCAASGGTFTFKTMGWYRQAPGKERQLVAAISISGGSTYYADSVKGRFTISRDNAKNTVYLQMNSLKPEDTAVYYCAAQYVRTPSPEYDYWGQGTQVTVSS", "polyreactivity (PSR sort gate)": "high polyreactivity"},
      {"sequence": "QVQLVESGGGLVQAGGSLRLSCAASGGTFTFYAMGWYRQATGKERELVATINWSGGSTYYADSVKGRFTISRDNAKNTVYLQMNSLKPEDTAVYYCNAAWPYKSVEYWGQGTQVTVSS", "polyreactivity (PSR sort gate)": "low polyreactivity"},
      {"sequence": "QVQLVESGGGLVQAGGSLRLSCAASGGTFTYYTKGWYRQAPGKERELVAAISTGGRTYYADSVKGRFTISRDNAKNTVYLQMNSLKPEDTAVYYCNADYDETDVLGEFDYWGQGTQVTVSS", "polyreactivity (PSR sort gate)": "low polyreactivity"},
      {"sequence": "QVQLVESGGGLVQAGGSLRLSCAASGGTFVANTMGWYRQAPGKERELVAAITWSGGRTYYADSVKGRFTISRDNAKNTVYLQMNSLKPEDTAVYYCNADYYRKAESSPEGYDYWGQGTQVTVSS", "polyreactivity (PSR sort gate)": "high polyreactivity"},
      {"sequence": "QVQLVESGGGLVQAGGSLRLSCAASGGTFVLNAMGWYRQAPGKERELVATISSGGGTDYADSVKGRFTISRDNAKNTVYLQMNSLKPEDTAVYYCNTDYILWGDYDYWGQGTQVTVSS", "polyreactivity (PSR sort gate)": "low polyreactivity"},
      {"sequence": "QVQLVESGGGLVQAGGSLRLSCAASGGTFVTYAMGWYRQAPGKERELVAAITTGGSTYYADSVKGRFTISRDNAKNSVYLQMISLKPEDTAVYYCAAVYTGSGKRYYKGYYWGQGTQVTVSS", "polyreactivity (PSR sort gate)": "low polyreactivity"},
      {"sequence": "QVQLVESGGGLVQAGGSLRLSCAASGGTFVVYAMGWYRQAPGKEREFVAGISWGGGRTYYADSVKGRFTISRDNAKNPVYLQMNSLKPEDTAVYYCAVRREIQYYRKFDYWGQGTQVTVSS", "polyreactivity (PSR sort gate)": "low polyreactivity"},
      {"sequence": "QVQLVESGGGLVQAGGSLRLSCAASGGTFVYNAMGWYRQAPGKERELVAAIRVRGDTTYYADSVKGRFTISRDNAKNTVYLQMNSLKPEDTAVYYCAAYPDYSYYYWGQGTQVTVSS", "polyreactivity (PSR sort gate)": "high polyreactivity"},
      {"sequence": "QVQLVESGGGLVQAGGSLRLSCAASGGTFVYYAMGWYRQAPGKERELVAAISGSGGRTYYADSVKGRFTISRDNAKNTVYLQMNSLKPEDTAVYFCAAVHLNRYWGQGTQVTVSS", "polyreactivity (PSR sort gate)": "high polyreactivity"},
      {"sequence": "QVQLVESGGGLVQAGGSLRLSCAASGGTFVYYTMGWYRQAPGKERELVAAISGRGGRTYYADSVKGRFTISRDNAKQTVYLQMNSLKPEDPAVYYCTATQIGPYYLPFDSWGQGTQVTVSS", "polyreactivity (PSR sort gate)": "high polyreactivity"},
      {"sequence": "QVQLVESGGGLVQAGGSLRLSCAASGGTFWIYAMGWYRQAPGKERELVAGISHGDSTYYADSVKGRFTISRDNAKNTVYLQMNSLKPEDTAVYYCARDYRNPPFAYEYWGQGTQVTVSS", "polyreactivity (PSR sort gate)": "low polyreactivity"},
      {"sequence": "QVQLVESGGGLVQAGGSLRLSCAASGGTFWKYPMGWTRQAPGKERELVAAITWSGSSTYYADSVKGRFTISRDNAKNTVYLQMNSLKPEDTAVFYCAARYQPRKGAHYGYWGQGTQVTVSS", "polyreactivity (PSR sort gate)": "high polyreactivity"},
      {"sequence": "QVQLVESGGGLVQAGGSLRLSCAASGGTFWSYAMGLYRQAPGKEREFVAAITTSAGRTNFADSVKGRFTISRDNAKNTFYLQMNSLKPEDTAVYYCAARSAYPGLGYGFDYWGQGTQVTVSS", "polyreactivity (PSR sort gate)": "low polyreactivity"},
      {"sequence": "QVQLVESGGGLVQAGGSLRLSCAASGGTFYGYAMGWYRQAPGKERELVAASNYRGGRTYYADSVKGRFTISRDNAKNTGYLQMNSLKPEDTAVYYCAATSYRLDGYDYWGQGTQVTVSS", "polyreactivity (PSR sort gate)": "high polyreactivity"},
      {"sequence": "QVQLVESGGGLVQAGGSLRLSCAASGGTFYHNVMGWYRQAPGKERELVAAIRYSGGRTYYADSVKGRFTISRDNAKNTVYLQMNSQKPEDTAVYYCAVRSYYGPFGYWGQGTQVTVSS", "polyreactivity (PSR sort gate)": "high polyreactivity"},
      {"sequence": "QVQLVESGGGLVQAGGSLRLSCAASGGTFYHYAMGWYRQAPGKERELVAAISWGGGSTYYADSVKGRFTISRDNAKNTVYLQMNSLKPEHTAVYYCAARRGFRFRDYYWGQGTQVTVSS", "polyreactivity (PSR sort gate)": "high polyreactivity"},
      {"sequence": "QVQLVESGGGLVQAGGSLRLSCAASGGTFYKYAMGWYRQAPGKERELVAAISRSGGSTYYADSVKGRFTISRDNAKNTVYLQMNSLKPEDTAVYYCNAYGSYWDFDYWGQGTQVTVSS", "polyreactivity (PSR sort gate)": "high polyreactivity"},
      {"sequence": "QVQLVESGGGLVQAGGSLRLSCAASGGTFYLNAMGWYRQAPGKERELVAAISKRSSTTYYADSVKGRFTISRDNAKNTVYLQMNSLKPEDTAVYYCAAEYFDWWVTYDYWGQGTQVTVSS", "polyreactivity (PSR sort gate)": "high polyreactivity"},
      {"sequence": "QVQLVESGGGLVQAGGSLRLSCAASGGTFYPYAMGWYREAPGKEWELVAAISTSGGITYYADSVKGRFTISRDNAKNTVYLQMNSLKPEDTAVYYCAKVLRDYYTYYRWQYREFGYWGQGTQVTVSS", "polyreactivity (PSR sort gate)": "high polyreactivity"},
      {"sequence": "QVQLVESGGGLVQAGGSLRLSCAASGGTFYTNVMGWYRQAPGKERELVAAITRSGGSTHYADSVKGRFTISRDNAKNTVYLQMNSLKPEDTAVYYCAVGSPYYDGMDYWGQGTQVTVSS", "polyreactivity (PSR sort gate)": "low polyreactivity"},
      {"sequence": "QVQLVESGGGLVQAGGSLRLSCAASGGTFYTYAMGWYRQAPGKERELVAAISRSGGRTYYADSVKGRFTISRDNAKNTVYLQMNSLKPEDTAVYYCAAVRIARAVQDYDYWGQGTQVTVSS", "polyreactivity (PSR sort gate)": "high polyreactivity"},
      {"sequence": "QVQLVESGGGLVQAGGSLRLSCAASGGTFYVYAMGWYRQAPGKERELVAAISTSDGITYYADSVKGRFTISRDNAKNTVYLQMNSLNPEDTAVYYCAAVFFSSFTYAYDYWGQGTLVTVSS", "polyreactivity (PSR sort gate)": "high polyreactivity"},
      {"sequence": "QVQLVESGGGLVQAGGSLRLSCAASGGTIAYNAMGWYRQAPGKERELVAAISSSGGRTYYADSVKGRFTISRDNAKNTVYLQMNSLKPEDTAVYFCATPVNNGFDYWGQGTQVTLSS", "polyreactivity (PSR sort gate)": "high polyreactivity"},
      {"sequence": "QVQLVESGGGLVQAGGSLRLSCAASGGTIDNAMGWYRQAPGKERELVAAISKHGGRTYYADSVKGRFTISRDNAKNTVYLQMNSLKAEDTAVYYCAADAFRGFFWGQGTQVTVSS", "polyreactivity (PSR sort gate)": "high polyreactivity"},
      {"sequence": "QVQLVESGGGLVQAGGSLRLSCAASGGTIEYYAMGWYRQAPEKERELVAAISVSGGRTYYADSVKGRFTISRDNAKNTVYLQMNSLKPEDTAVYYCATDSRLWGQGTQVTVSS", "polyreactivity (PSR sort gate)": "high polyreactivity"},
      {"sequence": "QVQLVESGGGLVQAGGSLRLSCAASGGTIHSYAMGLYRQANGKERDLVAAISGSGGSTYYADSVKGRFTISRDNAKNTFYLQMNSLKPEDTAVYYCAARDWGDGSEYYYWGQGTQVTVSS", "polyreactivity (PSR sort gate)": "high polyreactivity"},
      {"sequence": "QVQLVESGGGLVQAGGSLRLSCAASGGTLYLYAMGWYRPAPGKERELVAAISYNGGSTYADSVKGRFTISRDNAKNTVYLQMNSLKPEDTAVYYCAADRSPRCLGGYWGQGTQVTVSS", "polyreactivity (PSR sort gate)": "low polyreactivity"},
      {"sequence": "QVQLVESGGGLVQAGGSLRLSCAASGGTLYRYAMGWYRQAPGKERELVAGISSSGGRTYYADSVKGRFTISRDNAKNTVYLQMNSLKPEDTAVYYCAKYWVSSYDYWGQGNQVTVSS", "polyreactivity (PSR sort gate)": "high polyreactivity"},
      {"sequence": "QVQLVESGGGLVQAGGSLRLSCAASGGTQRYYAMGWYRQAPGKEREFVASISRSGGSTYYADSVKGRFTISRDNAKNTVYLQMNSLKPEDTAVYYCAAYWSPGYTTRRGYWGQGTQVTVSS", "polyreactivity (PSR sort gate)": "high polyreactivity"},
      {"sequence": "QVQLVESGGGLVQAGGSLRLSCAASGGTSYAYTMGWYRQAPGKERELVAAISGSTGSTYYADSVKGRFTISRDNAKNTVYLQMNSLKPEDTAVYYCNADISSLYSLSWFRYWYDYWGQGTQVTVSS", "polyreactivity (PSR sort gate)": "low polyreactivity"},
      {"sequence": "QVQLVESGGGLVQAGGSLRLSCAASGGTYGTNAMGWYRQAPGKERELVAAITKTGVRTYYADSVKGRFTISRDNAKNTVYLQMNSLKPEDTAVYYCAAGNPAWPFNYWGQGTQVTVSS", "polyreactivity (PSR sort gate)": "high polyreactivity"},
      {"sequence": "QVQLVESGGGLVQAGGSLRLSCAASGGTYNSNAMGWYRQAPAKEREFVAAISSSGGSTYYADSVKGRFTISRDNAKNTVNLQMNSLKPEDTAVYYCAKRYPYPNCRFRFGYWGQGTQVTVSS", "polyreactivity (PSR sort gate)": "high polyreactivity"},
      {"sequence": "QVQLVESGGGLVQAGGSLRLSCAASGHIFFYYTMGWYRQAPGKERELVAGITIGGSTNYADSVKGRFTISRDNAKNTVYLQMNSVKPEDTAVYYCKVVKYVDIYSYWEYYYWGQGTQVTVSS", "polyreactivity (PSR sort gate)": "low polyreactivity"},
      {"sequence": "QVQLVESGGGLVQAGGSLRLSCAASGHIFPTNAMGWYRQAPGKERELVAVISESVGSTYYADSVKGRFTISRDNAKNTVYLQMNSLKPEDTAVYYCATQSRYPSLDADYDYWGQGTQVTVSS", "polyreactivity (PSR sort gate)": "low polyreactivity"},
      {"sequence": "QVQLVESGGGLVQAGGSLRLSCAASGHIFTRNAMGWYRQAPGKERELVAAISRTGGSTYYADSVKGRFTISRDNAKNSVYLQMNSLKPEDTAVYYCAKRRQASEDYWGQGTQVTVSS", "polyreactivity (PSR sort gate)": "high polyreactivity"},
      {"sequence": "QVQLVESGGGLVQAGGSLRLSCAASGIFGWNTMGWYRQAPGTERELVATISWGGGTTYYADSVKGRFTISRDNAKNTVYLQMNSLKPEDTAVYYCAKVYAVRIGLRYYYWGQGTQVTVSS", "polyreactivity (PSR sort gate)": "low polyreactivity"},
      {"sequence": "QVQLVESGGGLVQAGGSLRLSCAASGIFLGYAMGWYRQAPGKERELVAGISSGGGTYYADSVKGRFTISRDNAKNTVYLQMNSLKPEDTAVYYCNAASQYTFDSSFDYWGQGTQVTVSS", "polyreactivity (PSR sort gate)": "low polyreactivity"},
      {"sequence": "QVQLVESGGGLVQAGGSLRLSCAASGIFRGYAMGWYRQAPGKEREFVAAISRTGGGTYYADSVKGRFTISRDNAKNTVYLQMNSLKPEDTAVYYCAAVRKYDGQKFGYWGQGTQVTVSS", "polyreactivity (PSR sort gate)": "low polyreactivity"},
      {"sequence": "QVQLVESGGGLVQAGGSLRLSCAASGIFWYNMGWYRPAPGKERELVAAITASGGSRTYYADSVKGRFTISRDNAKNTVYLQMNSLKPEDTAVYYCAASSYSYLYYSWGQGTQVTVSS", "polyreactivity (PSR sort gate)": "high polyreactivity"},
      {"sequence": "QVQLVESGGGLVQAGGSLRLSCAASGIFWYYAMGWYRQAPGKERELVAAISSGGSTYYADSVKGRFTISRDNAKNTVSLQMNSLKPEDTAVYYCNAVYWKASHYGYGYWGQGTQVTVSS", "polyreactivity (PSR sort gate)": "high polyreactivity"}
    ]}
  ]
}
